Data reported in US20200199081.

Columns and labels:
[1] = molecular target: HA-tagged wild-type NRAS (HA-NRASWT)
[2] = molecular target: HA-tagged NRASQ61R (HA-NRASQ61R)

B1: Flag-tagged STK19D89N (protein)
chain: MQKWFSAFDDAIIQRQWRANPSRGGGGVSFTKEVDTNVATGAPPRRQRVPGRACPWREPIRGRRGARPGGGDAGGTPGETVRHCSAPENPIFRFSSLHSYPFPGTIKSRDMSWKRHHLIPETFGVKRRRKRGPVESDPLRGEPGSARAAVSELMQLFPRGLFEDALPPIVLRSQVYSLVPDRTVADRQLKELQEQGEIRIVQLGFDLDAHGIIFTEDYRTRVCDCVLKACDGRPYAGAVQKFLASVLPACGDLSFQQDQMTQTFGFRDSEITHLVNAGVLTVRDAGSWWLAVPGAGRFIKYFVKGRQAVLSMVRKAKYRELLLSELLGRRAPVVVRLGLTYHVHDLIGAQLVDCISTTSGTLLRLPET
in vitro kinase assay, phosphorylation of NRAS [1]: phosphorylation of purified recombinant NRAS was enhanced by STK19D89N to a higher extent than by STK19WT
in vitro kinase assay, phosphorylation of NRAS [2]: phosphorylation of purified recombinant NRAS was enhanced by STK19D89N to a higher extent than by STK19WT

B2: Flag-tagged STK19 wild type (STK19-Flag) (protein)
chain: MQKWFSAFDDAIIQRQWRANPSRGGGGVSFTKEVDTNVATGAPPRRQRVPGRACPWREPIRGRRGARPGGGDAGGTPGETVRHCSAPEDPIFRFSSLHSYPFPGTIKSRDMSWKRHHLIPETFGVKRRRKRGPVESDPLRGEPGSARAAVSELMQLFPRGLFEDALPPIVLRSQVYSLVPDRTVADRQLKELQEQGEIRIVQLGFDLDAHGIIFTEDYRTRVCDCVLKACDGRPYAGAVQKFLASVLPACGDLSFQQDQMTQTFGFRDSEITHLVNAGVLTVRDAGSWWLAVPGAGRFIKYFVKGRQAVLSMVRKAKYRELLLSELLGRRAPVVVRLGLTYHVHDLIGAQLVDCISTTSGTLLRLPET
in vitro kinase assay, NRAS preloaded with GDP, GTP or GTPγS [1]: a higher STK19-induced phosphorylation of the GTP- and GTPγS-loaded NRAS than GDP-loaded NRAS
serine phosphorylation of NRAS (immunoblot after NRAS immunoprecipitation, HPMs) [1]: only a marginal increase in phosphorylation of NRASWT was detected
in vitro kinase assay, phosphorylation of NRAS (HA-NRASS89A): mutation of S89 to alanine (S89A) abolished phosphorylation of NRASWT and NRASQ61R
in vitro kinase assay, phosphorylation of NRAS (HA-NRASQ61R/S89A): mutation of S89 to alanine (S89A) abolished phosphorylation of NRASWT and NRASQ61R

B3: Flag-tagged kinase-dead STK19K317P (protein)
chain: MQKWFSAFDDAIIQRQWRANPSRGGGGVSFTKEVDTNVATGAPPRRQRVPGRACPWREPIRGRRGARPGGGDAGGTPGETVRHCSAPEDPIFRFSSLHSYPFPGTIKSRDMSWKRHHLIPETFGVKRRRKRGPVESDPLRGEPGSARAAVSELMQLFPRGLFEDALPPIVLRSQVYSLVPDRTVADRQLKELQEQGEIRIVQLGFDLDAHGIIFTEDYRTRVCDCVLKACDGRPYAGAVQKFLASVLPACGDLSFQQDQMTQTFGFRDSEITHLVNAGVLTVRDAGSWWLAVPGAGRFIKYFVKGRQAVLSMVRKAPYRELLLSELLGRRAPVVVRLGLTYHVHDLIGAQLVDCISTTSGTLLRLPET
phosphorylated serine levels in NRAS (immunoblot) [2]: The upregulation of phosphorylated serine levels in NRAS was also diminished by overexpression of a kinase-dead STK19 K317P mutant
